From patent US6602700B1, “Phenolic acid esterases, coding sequences and methods” (University of Georgia Research Foundation, Inc., priority 1998, dated 2003)

Columns and labels:
[1] = Feruloyl esterase activity of C. thermocellum enzymes, HPLC assay, FAXX as substrate; format: biochemical; conditions: E. coli cell free extracts
Experimental: (§1) Unless otherwise noted, all C. thermocellum enzyme assays were performed at 60° C. in 50 mM Na-citrate buffer, pH 6.0. One unit of enzyme activity was defined as the amount of enzyme that released 1 μmol of product min-1, and specific activity is given in units per milligram of protein. Feruloyl esterase activity was measured using a modified version of the assay described by Borneman et al. [Borneman etal. (1990) Anal. Biochem. 190:129-133]. The appropriately diluted protein sample (25 l) was added to 400 μl of buffer plus 8 mM of substrate. Samples were incubated at 60° C. for 5 min. and the reaction was stopped by adding 25 μl of 20% formic acid. Release of ferulic acid was measured via HPLC using a mobile phase of 10 mM Na-formate pH 3 and 30% (vol/vol) methanol. For routine assays, FAXX and FAX3 purified from wheat bran were used as substrates [Borneman et al. (1990) supra]. Ethyl-ferulate and ethyl-p-coumarate esters were a gift from D. E. Akin (USDA, Athens, Ga.). The hydrolysis of these (10 mM) were determined similarly to that of FAXX, but the HPLC analyses were performed with 50% methanol. HPLC runs were with a Hewlett Packard 1100 Series instrument equipped with an autosampler and diode array detector. Ferulic acid and p-coumaric acid were used as standards. To determine the amount of feruloyl and p-coumaroyl groups released from plant cell walls, wheat bran and Coastal Bermuda grass were ground in a Wiley mill to pass through a 250 μm screen. Plant samples of ten milligram were incubated for one hour in 400 μl of 50 mM Na-citrate buffer pH, 6.0 plus 25 μl of enzyme. After the addition of 25 μl of 20% formic acid to stop the reaction, the samples were centrifuged at 16,000×g in a microfuge and then assayed for FA and pCA by HPLC.

[2] = Storage stability of purified XynZ-derived FAE at 4° C.; format: physicochemical; conditions: 4° C. in elution buffer (50 mM Tris pH 7.5, 5% glycerol)
Experimental: Alternatively, the 100,000×g supernatant after the heat treatment was concentrated to a volume of 2 ml with a Centricon 10 concentrator (Amicon, Millipore, Bedford, Mass.) and then applied to a TSK3000SW column (Tosohaas) which was run with 50 mM Tris pH 7.5 and 5% glycerol as solvent.

[3] = Routine feruloyl esterase assay of purified recombinant XynZ polypeptides (purification tables); format: biochemical; conditions: purified preparation after heat treatment and TSK 3000SW gel filtration
Experimental: as §1, with “To determine the amount of feruloyl and p-coumaroyl groups released from plant cell walls, wheat bran and Coastal Bermuda grass were ground in a Wiley mill to pass through a 250 μm screen. Plant samples of ten milligram were incubated for one hour in 400 μl of 50 mM Na-citrate buffer pH, 6.0 plus 25 μl of enzyme. After the addition of 25 μl of 20% formic acid to stop the reaction, the samples were centrifuged at 16,000×g in a microfuge and then assayed for FA and pCA by HPLC.” left out

[4] = C. thermocellum enzyme stability experiments (heat incubation, residual activity); format: physicochemical
Experimental: Purified enzyme at a concentration of 13 μg/nMl was placed in a water bath at the appropriate temperature and incubated at intervals of one hour. Enzyme aliquots (25 μl) were removed and assays were performed in triplicate using FAX3 as a substrate as described above. FAE/CBD was tested at temperatures of 500, 600, and 70° C. while FAE was tested at 70°, 80° and 90° C.

[5] = Cellulose binding of XynZ constructs; conditions: purified from recombinant E. coli
[6] = Feruloyl esterase activity of C. thermocellum enzymes, HPLC assay, FAX3 as substrate; format: biochemical; conditions: pH 6.0, 60° C.
Experimental: as §1, with “To determine the amount of feruloyl and p-coumaroyl groups released from plant cell walls, wheat bran and Coastal Bermuda grass were ground in a Wiley mill to pass through a 250 μm screen. Plant samples of ten milligram were incubated for one hour in 400 μl of 50 mM Na-citrate buffer pH, 6.0 plus 25 μl of enzyme. After the addition of 25 μl of 20% formic acid to stop the reaction, the samples were centrifuged at 16,000×g in a microfuge and then assayed for FA and pCA by HPLC.” left out

Row | Molecule | Feruloyl esterase activity (hydrolysis of FAXX) of construct expressed in E. coli [1] | Storage stability [2] | Specific Activity [3] [U/mg] | Relative activity after heat incubation ([4]; 80° C., after three hours of incubation) | Relative activity after heat incubation ([4]; 90° C., after 1 hour of incubation) | Thermal stability ([4]; temperatures up to 70° C. for 6 hours) | Feruloyl esterase activity (hydrolysis of FAXX) of construct expressed in E. coli ([1]; listed as XynZ UD) | Removal of feruloyl esterase activity by Avicel and acid swollen cellulose adsorption (cellulose binding) [5] | Km [6] [mM] | Vmax [6]
1 | FAE287: XynZ amino acids 20-307; lacks the CBD but contains the proline rich linker (protein, listed as Clostridium thermocellum) LVTISSTSAASLPTMPPSGYDQVRNGVPRGQVVNISYFSTATNSTRPARVYLPPGYSKDKKYSVLYLLHGIGGSENDWFEGGGRANVIADNLIAEGKIKPLIIVTPNTNAAGPGIADGYENFTKDLLNSLIPYIESNYSVYTDREHRAIAGLSMGGGQSFNIGLTNLDKFAYIGPISAAPNTYPNERLFPDGGKAAREKLKLLFIACGTNDSLIGFGQRVHEYCVANNINHVYWLIQGGGHDFNVWKPGLWNFLQMADEAGLTRDGNTPVPTPSPKPANTRIEAEDYD | exhibited feruloyl esterase activity | – | – | – | – | – | – | – | – | –
2 | FAE: C. thermocellum XynZ amino acids 20-286 expressed in E. coli; feruloyl esterase domain without linker or CBD (protein, listed as Clostridium thermocellum) LVTISSTSAASLPTMPPSGYDQVRNGVPRGQVVNISYFSTATNSTRPARVYLPPGYSKDKKYSVLYLLHGIGGSENDWFEGGGRANVIADNLIAEGKIKPLIIVTPNTNAAGPGIADGYENFTKDLLNSLIPYIESNYSVYTDREHRAIAGLSMGGGQSFNIGLTNLDKFAYIGPISAAPNTYPNERLFPDGGKAAREKLKLLFIACGTNDSLIGFGQRVHEYCVANNINHVYWLIQGGGHDFNVWKPGLWNFLQMADEAGLTRDGN | exhibited feruloyl esterase activity | stable for at least a month | 26.6 | around 50% | most of the relative activity was destroyed | stable | high levels of feruloyl esterase activity | not | 10.5 | 28.2 μmol ferulic acid released min-1 mg-1
3 | FAE227: XynZ amino acids 20-247; expressed but inactive truncation (protein, listed as Clostridium thermocellum) LVTISSTSAASLPTMPPSGYDQVRNGVPRGQVVNISYFSTATNSTRPARVYLPPGYSKDKKYSVLYLLHGIGGSENDWFEGGGRANVIADNLIAEGKIKPLIIVTPNTNAAGPGIADGYENFTKDLLNSLIPYIESNYSVYTDREHRAIAGLSMGGGQSFNIGLTNLDKFAYIGPISAAPNTYPNERLFPDGGKAAREKLKLLFIACGTNDSLIGFGQRVHEYCVANN | inactive | – | – | – | – | – | – | – | – | –
